According to publication PMC3173040 (Nature structural & molecular biology, 2011):

Target: the molecule itself
Test: SEC-MALS

B1: VopL fragment 130-484 (3W-VCD) (domain or fragment, Vibrio parahaemolyticus, UniProt Q87GE5 130-484, looked up)
chain: SVNEDHSKLMEQIRQGVKLKSATKSLSADKSSADAHSKLMEELLTGGRKLKKVATSDIPAPPPLPSASTSKSPDSRNALLSEIAGFSKDRLRKTGSLETLNSSQSKDKESFEPTTHERLLSEDLFKQSPKLSEQELDELANNLADYLFQAADIDWHQVISEKTRGLTTEEMAKSEHRYVQAFCREILKYPDCYKSADVASPESPKSGGGSVIDVALKRLQTGRERLFTTTDEKGNRELKKGDAILESAINAARMAISTEEKNTILSNNVKSATFEVFCELPCMDGFAEQNGKTAFYALRAGFYSAFKNTDTAKQDITKFMKDNLQAGFSGYSYQGLTNRVAQLEAQLAALSAKLS
stoichiometry N: 2
